Consider 6 substances from paper PMC4491210.

One series deals with Cys. The conditions noted are these: cited from earlier work.
The next series concerns the target Cys89 (UniProt position 89, FGRNGCSYCER). In words: UV-vis. The note with it: 25 °C; 200 mM NaCl; 10 mM Tris, 10 mM sodium citrate, 1 mM EDTA; Reduced protein referenced to oxidized protein; about 20 µM protein.
The target in the next series is Cys92 (UniProt position 92, NGCSYCERFKK). Description: UV-vis. The conditions noted are these: 25 °C; 200 mM NaCl; 10 mM Tris, 10 mM sodium citrate, 1 mM EDTA; Reduced protein referenced to oxidized protein; about 20 µM protein.
The target of series [1] is HP0377 lacking its own signal sequence (residues 25-221 of native HP0377) with a C-terminal 6 His tag (Helicobacter pylori 26695). Description: SEC; Superdex75 HiLoad 16/600, 20 mM Tris pH 8, 150 mM NaCl, absorbance at 280 nm, calibrated with Bio-Rad Gel Filtration Standard; monomer and dimer peaks.
For series [2] the target is unchanged. Description: cross-linking; glutaraldehyde 0.001-0.1 % v/v, HP0377 2.5 mg/ml, room temperature, 20 min, 0.05 M bicine-NaOH pH 8.5, 0.1 mM DTT, 0.4 M NaCl, quenched with ethanolamine-HCl; SDS-PAGE; monomer to dimer.

As for CcmG (DsbE) (Escherichia coli), the pKa with Cys is reported as 6.8.
Consider DsbA (Escherichia coli), for which, in the series on Cys, the pKa is 3.5.
Turning to DsbC (Escherichia coli), the pKa in the series on Cys is 4.1 ± 0.3.
Take “HP0377 (CcmG/DsbE/ResA-like thiol:disulfide oxidoreductase) (Helicobacter pylori 26695)”: the pKa is 3.56 ± 0.11 in the series with Cys89 and 9.23 ± 0.21 in the series with Cys92.
For the substance “HP0377 lacking its own signal sequence (residues 25-221 of native HP0377) with a C-terminal 6 His tag (domain or fragment)”, the stoichiometry N in series [1] and in series [2] was 2 throughout.
On to ResA (Bacillus subtilis), for which the pKa with Cys is reported as 8.8.
